Among the data in patent publication US20240425607A1, “IL-18BP ANTAGONIST ANTIBODIES AND THEIR USE IN MONOTHERAPY AND COMBINATION THERAPY IN THE TREATMENT OF CANCER” (Compugen Ltd., priority 2023, published 2024) are Kd values, retold here.

Experiment [1] deals with human IL-18BP (recombinant, construct not stated) (human) (UniProt O95998). Nature of the experiment: Biacore.
Experiment [2] has the same target. Nature of the experiment: KinExA. Background: In KinExA the mixture passes briefly over coated beads that capture the unbound partner.
For experiment [3], the target named is cynomolgus monkey IL-18BP (construct not stated) (cynomolgus monkey). Nature of the experiment: KinExA, solution equilibrium.

Sequence of human IL-18BP (recombinant, construct not stated) (human) (O95998 31-194 limits assumed): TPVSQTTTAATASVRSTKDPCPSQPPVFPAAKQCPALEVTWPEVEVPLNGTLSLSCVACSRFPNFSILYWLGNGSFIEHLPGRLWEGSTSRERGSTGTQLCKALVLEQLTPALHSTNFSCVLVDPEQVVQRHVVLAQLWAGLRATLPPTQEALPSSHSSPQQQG

For the substance “anti-human IL18BP antibody clone 136007 (cat. MAB1191, R&D systems)”, the Kd (commonly the constant that tells how readily two partners part at equilibrium) in experiment [1] came out at 0.273 nM. Regarding “anti-human IL18BP antibody clone W19089C (cat. 947703, Biolegend)”, the Kd in experiment [2] was determined as 0.0638 nM.

In turn, “cyno IL-18 (from UniProt A0A2K5TJ84 37-193) (ligand)” had an equilibrium dissociation constant (Kd) in experiment [3] of 0.345 pM.
